How the values were obtained:
[1] = biological target: FcγRIIa R; assay: SPR; human FcγRIIa R131
[2] = biological target: FcγRIIIa V; assay: SPR; human FcγRIIIa V157
[3] = biological target: FcγRIIa H; assay: SPR; human FcγRIIa H131
[4] = biological target: FcγRIIa; assay: SPR; rhesus FcγR
[5] = biological target: FcγRIII; assay: SPR; rhesus FcγR
[6] = biological target: FcγRI; assay: SPR; rhesus FcγR
[7] = biological target: FcγRIIb; assay: SPR; rhesus FcγR
[8] = biological target: FcγRIV; assay: SPR; mouse FcγR
[9] = biological target: FcγRIII; assay: SPR; mouse FcγR
[10] = biological target: FcγRI; assay: SPR; mouse FcγR
[11] = biological target: FcγRIIb; assay: SPR; mouse FcγR
[12] = biological target: FcγRIIIa F; assay: SPR; human FcγRIIIa F157
[13] = biological target: human FcRn/B2 microglobulin; assay: SPR; pH 6.0

Substance | Kd [1] [nM] | Kd [2] [nM] | Kd [3] [nM] | Kd [4] [nM] | Kd [5] [nM] | Kd [6] [nM] | Kd [7] [nM] | Kd [8] [nM] | Kd [9] [nM] | Kd [10] [nM] | Kd [11] [nM] | Kd [12] [nM] | Kd [13] [nM]
SDIE | 354 | 29.6 | 769 | 685 | 30 | 0.441 | 540 | 8.56 | 1080 | 14.1 | 398 | 47.5 | –
GAIE LS- | – | – | – | – | – | – | – | – | – | – | – | – | 20.1
GAALIE LS- | – | – | – | – | – | – | – | – | – | – | – | – | 19.9
GAIE | 204 | 130 | 249 | 1400 | 87.6 | 0.51 | 1100 | 258 | 2520 | 212 | 1150 | 162 | –
GAALIE LS+ | – | – | – | – | – | – | – | – | – | – | – | – | 1.4

Now from value to substance:

Kd [1] [nM] | Kd [2] [nM] | Kd [3] [nM] | Kd [4] [nM] | Kd [5] [nM] | Kd [6] [nM] | Kd [7] [nM] | Kd [8] [nM] | Kd [9] [nM] | Kd [10] [nM] | Kd [11] [nM] | Kd [12] [nM] | Kd [13] [nM] | Substance
819 | 131 | 622 | 9100 | 91.2 | 0.457 | 6920 | 207 | 2380 | 440 | 1620 | 164 | – | GAALIE
– | – | – | – | – | – | – | – | – | – | – | – | 12.7 | SDIE LS-
– | – | – | – | – | – | – | – | – | – | – | – | 1.19 | SDIE LS+
– | – | – | – | – | – | – | – | – | – | – | – | 1.99 | GAIE LS+

From US20250171558A1
